The source of these data is patent US20220306744A1 (CRESCENDO BIOLOGICS, published 2022).

For assay [1], the target named is T1, Strep tagged recombinant human PD-1 (human, UniProt Q15116 25-167, limits assumed).
T1 construct: whole entry named; also called Strep tagged human PD-1; not shown: Strep tag
Nature of the assay: SPR Biacore T200, single cycle kinetics, Strep tagged human PD-1 amine coupled, 1:1 model. Here is the method: Single cycle kinetics assays were used to study the interaction between human PD-1 with Humabody VHs on a Biacore T200 instrument (GE Healthcare). Strep tagged recombinant human PD-1 was amine coupled to one flow cell of a CM-5 chip to create a low density surface (14 RU) using standard Biacore reagents. For the reference flow cell, a blank immobilisation was carried out. A five point, three-fold dilution series of each Humabody VH was made with a top concentration of 25 nM. The binding kinetics were followed by flowing the Humabody VH over the chip surface in HBS EP+ buffer at a flow rate of 30 μl/min. The contact time for each of the association steps was 180 seconds and the dissociation step was 3300 seconds. The data was fitted to a 1:1 binding model after double reference subtraction using the Biacore T200 Evaluation software.

Assay [2] addresses T2, human PD-1 expressed on cells (CHO TREX human PD1 cell line, full-length human PD-1 sequence) (human, UniProt Q15116 21-288). The assay can be described thus: cell-based or functional assay.
Assay [3] deals with T3, recombinant human PD-1 Fc chimera (human, UniProt Q15116 25-167).
T3 construct: Bought protein (R&D 1086-PD in the HTRF assay); also called human PD-1-hu Fc; huPD-1Fc; not shown: human Fc
T3 sequence (Q15116 25-167 limits assumed, change not shown): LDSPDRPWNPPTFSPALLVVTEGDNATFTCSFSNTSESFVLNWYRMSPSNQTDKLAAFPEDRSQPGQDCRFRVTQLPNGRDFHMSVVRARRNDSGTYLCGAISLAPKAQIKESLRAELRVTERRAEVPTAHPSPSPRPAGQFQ
The assay can be described thus: SPR Biacore T200, single cycle kinetics, human Fc tagged PD-1 captured on Protein G, 1:1 model. Here is the method:
Single cycle kinetics assays were used to study the interaction between human Fc tagged human PD-1 with Humabody® VH on a Biacore T200 instrument (GE Healthcare). Protein G was amine coupled to two flow cells of a CM-5 chip. Human Fc tagged recombinant human PD-1 was captured onto one of the flow cells. The other was used as the reference flow cell. A five point, three-fold dilution series of each Humabody® VH was made with a top concentration within the range of 50 to 150 nM. The binding kinetics were followed by flowing the Humabody® VH over the chip surface in HBS EP+ buffer at a flow rate of 30 μl/min. The contact time for each of the association steps was 180 seconds and the dissociation step was 3600 seconds. The data was fitted to a 1:1 binding model after double reference subtraction using the Biacore T200 Evaluation software.

Assay [4] has as its target T2, human PD-1 expressed on cells (CHO TREX …). The assay can be described thus: FMAT: inhibition of PDL-2 (100 pM) binding to CHO human PD-1 cells. As to the method:
(§1) Purified VH were serially diluted in FMAT assay buffer and tested for binding to CHO human PD-1 cells as described above and for inhibition of human PD-L1/PD-L2 binding to CHO human PD-1 cells. All reagents and serially diluted VH were prepared in FMAT assay buffer. VH, buffer (total binding controls) or excess competitor (non-specific binding control) were incubated with 400 pM human Fc tagged human PD-L1 or 100 pM PDL-2, 4 nM anti human Fc-Alexa Fluor-488 and 2000 per well CHO human PD-1 DRAQ5 stained cells in a 384 well black clear-bottomed assay plates. Plates were incubated for 2 hours at room temperature then fluorescence measured in the FL2 (502 nm-537 nm) and FL5 (677-800 nm) channels on the Mirrorball plate reader (TTP) following excitation at 488 nm and 640 nm. Data was expressed as a % of the total binding control (i.e. % control) after subtraction of the background signal determined from the non-specific binding control wells. The results are shown in FIG. 5 and in Tables 8 and 9 below.

In assay [5] the target is T4, cynomolgus PD-1 recombinant protein (Acro Biosystems cat no. PD-1-C5254) (cynomolgus).
T4 construct: Bought protein; also called cyno PD1
Nature of the assay: HTRF binding assay, 2 nM recombinant PD1, anti His-D2 and anti human-Fc cryptate. Here is the method:
(§2) Purified VH were tested for their ability to bind to human PD1 (R&D Systems cat no. 1086-PD), cynomolgus PD-1 (Acro Biosystems cat no. PD-1-C5254) and mouse PD1 (R&D Systems cat no. 1021-PD) in an HTRF Binding assay format. All reagents and serially diluted VH were prepared in assay buffer containing PBS, 0.1% BSA and 0.4M Potassium Fluoride. Samples or assay buffer (non-specific binding) were incubated with 2 nM human/cynomolgus or mouse PD1, 1 nM Anti human-Fc Cryptate PAb (Cisbio cat. no. 61HFCKLB) and 30 nM anti His-D2 (CisBio cat no 61HISDLA) in black 384-shallow well assay plates for a minimum of 3 hours at room temperature. Time-resolved fluorescent emission at 620 nm and 665 nm was measured following excitation at 337 nm on the BMG PHERAstar plate reader. The HTRF ratio were calculated ((665 nm emission/620 nm emission)*10000) and the data corrected for (non-specific binding) to give the specific binding signal.

The target in assay [6] is T3, recombinant human PD-1 Fc chimera. Described as above. As to the method:
as §2

In assay [7] the target is T2, human PD-1 expressed on cells (CHO TREX …). Nature of the assay: FMAT: inhibition of human Fc tagged human PD-L1 (400 pM) binding to CHO human PD-1 cells. As to the method: as §1
In assay [8] the target is T5, mouse PD-1 protein (R&D Systems cat no. 1021-PD) (mouse, UniProt Q02242 25-167).
T5 construct: Bought protein
T5 sequence (looked up): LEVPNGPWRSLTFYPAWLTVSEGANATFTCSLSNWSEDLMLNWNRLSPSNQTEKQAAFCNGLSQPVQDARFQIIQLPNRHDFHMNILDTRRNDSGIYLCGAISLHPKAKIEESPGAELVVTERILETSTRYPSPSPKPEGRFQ
The assay can be described thus: HTRF binding assay, 2 nM mouse PD1. As to the method: as §2

For assay [9], the target named is T2, human PD-1 expressed on cells (CHO TREX …). Nature of the assay: FMAT: inhibition of human Fc tagged human PD-L1 (400 pM) binding to CHO human PD-1 cells. Here is the method:
as §1
The source holds these as a separate data set.

Assay [10] concerns the target T3, recombinant human PD-1 Fc chimera. Nature of the assay: SPR Biacore T200, single cycle kinetics, human PD-1-hu Fc amine coupled to CM5, 1:1 model. As to the method: Binding kinetics of certain humabodies binding to human PD-1-hu Fc were measured by surface plasmon resonance (SPR) technology using Biacore T200 instrument (GE Healthcare). Recombinant human PD-1-hu Fc was immobilized by standard amine coupling to CM5 sensors chip (GE Healthcare) using 0.1 mg/ml solution of antigen in 10 mM sodium acetate at pH 5.5. For the reference flow cell, a blank immobilisation was carried out. Single cycle kinetics assays were used to study the interaction, a five point, three-fold dilution series of each Humabody® VH was made with a top concentration of 30 nM. The binding kinetics were followed by flowing the Humabody® VH over the chip surface in HBS EP+ buffer at a flow rate of 30 μl/min. The contact time for each of the association steps was 180 seconds and the dissociation step was varied between 1200-3600 seconds. The data was fitted to a 1:1 binding model after double reference subtraction using the Biacore T200 Evaluation software.

The target is the same in assay [11]. Nature of the assay: BLI Octet, human PD-1-hu Fc amine coupled to biosensors, 1:1 model. Here is the method:
Binding kinetics for Humabody® 1.1a to human PD-1-hu Fc are shown below. These were measured in real-time bio-layer interferometer based biosensor Octet (ForteBio). Recombinant human PD-1-hu Fc was immobilized by standard amine coupling to amine reactive biosensors in 10 mM sodium acetate at pH 5.0. All the binding studies were performed in HBS-ET Octet kinetics buffer. Biosensors were always washed in Octet kinetics buffer in between different steps. A seven point, two-fold dilution series of each Humabody® VH was made with a top concentration of 30 nM. The contact time for each of the association steps was 300 seconds and the dissociation step was varied between 400-600 seconds. Kinetic association (kₐ) and dissociation (kd) rate constants were determined by processing and fitting the data to a 1:1 binding model using ForteBio Analysis software.

T1 sequence (Q15116 25-167 limits assumed): as the sequence (Q15116 25-167 limits assumed, change not shown) above
T2 sequence (Q15116 21-288): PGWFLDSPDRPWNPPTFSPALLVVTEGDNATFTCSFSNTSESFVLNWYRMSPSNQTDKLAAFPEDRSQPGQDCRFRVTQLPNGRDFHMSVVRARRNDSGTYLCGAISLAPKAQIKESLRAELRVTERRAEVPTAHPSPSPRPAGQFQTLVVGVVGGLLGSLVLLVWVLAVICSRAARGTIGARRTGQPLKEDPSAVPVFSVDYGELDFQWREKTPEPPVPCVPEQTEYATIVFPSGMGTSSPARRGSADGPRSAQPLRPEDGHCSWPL

B1: 1.57b-4GS-1.1a (other)
chain: QVQLVESGGGLVKPGGSLRLSCAASGFTFSDNSMTWMRQAPGKGLEWVSYISSGGGVIFYADSVKGRFTISRDNAKNSLYLQMNSLRADDTAVYYCAREAPLRLGESPHDAFDISGQGTMVTVSSGGGGSGGGGSGGGGSGGGGSEVQLLESGGGSVQPGRSLRLSCAASGFTFDDHAMHWVRQAPGKGLEWVSGISWNSGSMGYADSVKDRFTISRDNAKSSLYLQMNSLRAEDTALYYCVREKGPGLTGSTADYYGLDVWGQGTMVTVSS
notes: Biparatopic VH-linker-VH
As for B1, the dissociation constant (Kd) in [1] turned out to be 0.111 nM; in assay [3] it was 0.0594 pM. The koff came to 4.86e-05 s⁻¹ in assay [1] and 4.59e-08 s⁻¹ in [3]. Moreover, the kon in assay [1] is 437000 M⁻¹ s⁻¹; in assay [3], 773000 M⁻¹ s⁻¹. Besides, the “EC50 (M), NFAT-Luciferase reporter gene assay” value (“EC50 (M)” below) in assay [2] was 1.7e-09 M. Further, the IC50 is 1.2 nM in assay [4], 1.3 nM in assay [7] and 0.9 nM in [9]. The figures for the EC50 in [5] and in [6] were 2.1 nM and 1.2 nM, respectively. For the same molecule, the binding result in assay [8] was “no binding”.

B2: 1.1b-4GS-1.1a (other)
chain: QVQLVESGGGLVKPGGSLRLSCAASGFTFSDYTMTWMRQAPGKGLEWVSYISTGGTIKYYTDSVKGRFTISRDNAKNSLYLQMNSLRADDTAVYYCAREAPLRLGESPHDAFDIWGQGTMVTVSSGGGGSGGGGSGGGGSGGGGSEVQLLESGGGSVQPGRSLRLSCAASGFTFDDHAMHWVRQAPGKGLEWVSGISWNSGSMGYADSVKDRFTISRDNAKSSLYLQMNSLRAEDTALYYCVREKGPGLTGSTADYYGLDVWGQGTMVTVSS
notes: Biparatopic VH-linker-VH
Regarding B2, the “EC50 (M)” value in assay [2] was 8.5e-09 M. Further, the IC50 in assay [7] amounted to 5.6 nM. Moreover, in [10], the Kd was found to be 0.035 nM, the off-rate constant (koff) was 1.1e-05 s⁻¹ and the kon amounted to 316000 M⁻¹ s⁻¹.

B3: 1.1b (VHH)
VHH: QVQLVESGGGLVKPGGSLRLSCAASGFTFSDYTMTWMRQAPGKGLEWVSYISTGGTIKYYTDSVKGRFTISRDNAKNSLYLQMNSLRADDTAVYYCAREAPLRLGESPHDAFDIWGQGTMVTVSS
notes: also called Humabody 1.1b
In turn, B3 came in with an IC50 in assay [7] of 23 nM.

B4: 1.57b (VHH)
VHH: QVQLVESGGGLVKPGGSLRLSCAASGFTFSDNSMTWMRQAPGKGLEWVSYISSGGGVIFYADSVKGRFTISRDNAKNSLYLQMNSLRADDTAVYYCAREAPLRLGESPHDAFDISGQGTMVTVSS
Consider B4, for which the results for the Kd in assay [1], in [3] and in assay [10] were 0.0782 nM, 44.1 pM and 0.000124 nM, respectively. Moreover, the dissociation rate constant (koff) came out at 3.17e-05 s⁻¹ in [1], 2.11e-05 s⁻¹ in assay [3] and 6.68e-08 s⁻¹ in assay [10]. Moreover, the on-rate constant (kon) is 405000 M⁻¹ s⁻¹ in assay [1], 479000 M⁻¹ s⁻¹ in assay [3] and 537000 M⁻¹ s⁻¹ in [10]. For the same molecule, the results for the IC50 in assay [4], in [7] and in assay [9] were 2.3 nM, 4.2 nM and 1.8 nM, respectively.

B5: 1.1a (VHH)
VHH: EVQLLESGGGSVQPGRSLRLSCAASGFTFDDHAMHWVRQAPGKGLEWVSGISWNSGSMGYADSVKDRFTISRDNAKSSLYLQMNSLRAEDTALYYCVREKGPGLTGSTADYYGLDVWGQGTMVTVSS
notes: also called Humabody 1.1a; VH single domain antibody 1.1a
For the molecule B5, in [11], the koff came to 0.000901 s⁻¹ and the kon amounted to 459000 M⁻¹ s⁻¹. In addition, in assay [10], the Kd was 0.676 nM, the koff stood at 7.35e-05 s⁻¹ and the association rate constant (kon) was 109000 M⁻¹ s⁻¹.

B6: 1.1b-6GS-1.1a (other)
chain: QVQLVESGGGLVKPGGSLRLSCAASGFTFSDYTMTWMRQAPGKGLEWVSYISTGGTIKYYTDSVKGRFTISRDNAKNSLYLQMNSLRADDTAVYYCAREAPLRLGESPHDAFDIWGQGTMVTVSSGGGGSGGGGSGGGGSGGGGSGGGGSGGGGSEVQLLESGGGSVQPGRSLRLSCAASGFTFDDHAMHWVRQAPGKGLEWVSGISWNSGSMGYADSVKDRFTISRDNAKSSLYLQMNSLRAEDTALYYCVREKGPGLTGSTADYYGLDVWGQGTMVTVSS
notes: Biparatopic VH-linker-VH
For the molecule B6, in assay [2], the “EC50 (M)” value came out at 1.1e-08 M. Moreover, the EC50 in assay [5] was 0.92 nM. In assay [6], the EC50 worked out at 0.5 nM. In addition, the binding result in [8] is “no binding”. Also, in assay [10], the Kd amounted to 0.028 nM, the off-rate (koff) came out at 6.39e-06 s⁻¹ and the association rate constant (kon) amounted to 228000 M⁻¹ s⁻¹.
